Source: the nanobody polyreactivity screen of Harvey et al. (2022)

Experiment: yeast display, Sf9 membrane polyspecificity reagent, FACS + sequencing; frameworks hold sequencing errors
Method in brief: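 A synthetic nanobody library was expressed on Saccharomyces cerevisiae BJ5465 by galactose induction for 36–48 hours. The library was stained for 1 hour at 4 °C with 10% biotinylated, detergent-solubilized Sf9 membrane reagent and enriched with streptavidin microbeads before FACS. Low and high (top ~1%) gates were set on anti-HA fluorescence for expression and streptavidin fluorescence for reagent binding, and each polyreactivity label reflects the gate of origin.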

Row | Sequence | polyreactivity (PSR sort gate)
1 | QVQLVESGGGLVQAGGSLRLSCAASGFTFAYYAMGWYRQAPGKERELVAAITGSGGRTYYADSVKGRFTISRDNAKNTVYLQMNSLKPEDTAVYYCAADRTVYYLSRTGYDYWGQGTQVTVSS | high polyreactivity
2 | QVQLVESGGGLVQAGGSLRLSCAASGRIFGGYAMGWYRQAPGKERELVAAIRWSGGSTYADSVKGRFTISRDNAKYTVYLQMNSLKPEDTAVYYCNTVRSPPGHDYWGQGTQVTVSS | low polyreactivity
3 | QVQLVESGGGLVQAGGSLRLSCAASGSIFYNYAMGWYRQAPGKERELVAAIKRSGGITFYADSVKGRFTISRDNAKNTVYLQMNSLKPEVTAVYYCAADRSFGHHFWYTGKRYDYWGQGTKVTVSS | low polyreactivity
4 | QVQLVESGGGLVQAGGSLRLSCAASGSIFDYYVMGWYRQSPGKERELVAAISLSGGSTYYADSVKGRFTISRDNAKNTVYLQMNSLKPEDTAVYYCNADSQWYDYDYWGQGTQVTVSS | high polyreactivity
5 | QVQLQESGGGLVQAGGSQRLSCAASGNISVTGFMGCYRQAPGKERELVASIGIGGTTYYADSVKGRFSISRDNEKNTVYLQMNSLKPEDTAVYYCAARYLYYAYSYWGQGTQVTVSS | low polyreactivity
6 | QVQLVESGGGLVQAGGSLRLRCAASGSIFWRNAMGWYRQAPGKERELVAPISGNGGTTYYADSVKGRFTISRENAKNTVFLQMNSLKPEHTAVYYCPKVGKTYRTYEYWGQGTEVTVSS | high polyreactivity
7 | QVQLVESGGGLVQAGGSLRISCAASGRIFRGYAMGWYRQAPGKEMELVAGITTSGGDTSYADSVKGRFTISRDNAKNTVYLQMNSLKPEDTAVYYCNASPFYYRPRYPMDYWGQGTQVTVSS | high polyreactivity
8 | QVQLVESGGGLVQAGGSLRLSCAASGRTFTPYAMGWYRQAPGKERELVATISSGTSTNYADSVNGRFTISRDNAKNTVYLQMNSLKPEDTAVYYCAADGYTYKFDYWGQGTQVTVSS | low polyreactivity
9 | HVQLVESGGGLVQAGGSLRLRCAASGITFAEYTMGWYRQAPGKERELVAAISRRGGSTYYADSVKGRLTISRDNAKNTVYLQMNSLKPEDTAVYYCNALFRYSRDYWGQGTQVTVSS | high polyreactivity
10 | QVQLVESGGGLVQAGGSLRLSCAASGRILYGNAMGWYRQAPGKERELVAAIDTSGGSTYYADSVKGRFTISRDNAKNTVYLQMNSLKPEDTAVYYCAVRAYREFLPIVYKWWWERDHWGQGTQVTVSS | low polyreactivity
11 | QVQLVESGGGLVQAGGSLRLSCAASGFIFWYYAMGWYRQAPGKERELVAAISSRGGSTYYADSVKGRFTISRDNAKNTVYLQMNSLKPEDTAVYYCAATGYTGYSRYYYWGQGTQVTVSS | high polyreactivity
12 | QVQLVESGGGLVQAGGSLRLSCAASGFTFDSYDMGGYRQAPGKERVLVAAITWSGGSTYYADSVKGRFTISRDYAKNTVYLQMNSLKPEDTAVYYGNADTGTYWVPWYHDGYDYWGQGTQVTVSS | low polyreactivity
13 | QVQLVDSGGGLVQAGGSLRLSCAASGSTFKYYGMGWYRQAPGKERELVASISSSGTRTYYADSVKGRFTISRDNAKNTVYLQMNSLKAEDTAVYYCAADSYATYFLYDSWGQGTQVTVSS | low polyreactivity
14 | QVQLVESGGGLVQAGGSLRLSCAASVSLSGYYAMGWYRTGPGKERELVASIRYTGALTYYADTVKGRFTISRDNAKNTVYLQMNSLKPEDTAGYYCAADVKRDRVWGGDYWGQGTQVTVSS | low polyreactivity
15 | PVQRVESGGGLVQAGGSLRLSCAASGRTFDSYAMGWYRQAPGKERELVAAISSRGTRTYYADSVKGRFTSSRDNAKNPVYLQINSLQPEDTAGYYCNAGGAYEYDYWGQGSQVTVSS | high polyreactivity
16 | QVQLVESGGGLVQAGGSLRLSCAASGTTFTAYAMGWYREAPGKERELVAAINWSGGTTYYADSVKGRFTISRDNAKNTVYLQMTSLKPEDTAVYYCAVDGNFFVEVSPYDYWGQGTQVTVSS | low polyreactivity
17 | QVQLVESGGGLVQAGGSLRLSCAASGNIFYRNAMGWYRQAPGKERELVAGITTSGDSTYYADSVKGRFTISRDNAKNTVYLQMNSLKPEDTAVYYCAASSHRYKYSSSYYYWGQGTQVTVSS | high polyreactivity
